Patent US20140051589

Tests used:
[1] = system: 1,557 peptides that contain no tyrosine residues (3,243-plex peptide construct set)
[2] = system: T1, peptide construct comprising the Abl substrate GEAIYAAPFA (SEQ ID NO:13) with C-terminal FLAG tag
T1 sequence: GEAIYAAPFADYKDDDDK

[3] = system: peptide construct with HCV polyprotein 8-mer TTPCSGSW (SEQ ID NO:9)
[4] = system: peptide construct with HCV polyprotein 8-mer EVVTSTWV (SEQ ID NO:11)
[5] = system: peptide construct with HCV polyprotein 8-mer EAIYQCCD (SEQ ID NO:12)
[6] = system: peptide construct with HCV polyprotein 8-mer MEECSQHL (SEQ ID NO:8)
[7] = system: peptide construct with HCV polyprotein 8-mer VVCCSMSY (SEQ ID NO:10)
[8] = system: T2, peptide construct with Cortactin 10-mer GTEPEPVYSM (SEQ ID NO:18)
T2 sequence: GTEPEPVYSM

[9] = system: T3, peptide construct with Cortactin 10-mer QVSSAYQKTV (SEQ ID NO:20)
T3 sequence: QVSSAYQKTV

[10] = system: T4, peptide construct with Cortactin 10-mer VYSMEAADYR (SEQ ID NO:19)
T4 sequence: VYSMEAADYR

[11] = system: T5, peptide construct with Cortactin 10-mer GLAYATEAVY (SEQ ID NO:16)
T5 sequence: GLAYATEAVY

[12] = system: T6, peptide construct with Cortactin 10-mer GHYPAEDSTY (SEQ ID NO:17)
T6 sequence: GHYPAEDSTY

[13] = system: T7, peptide construct comprising the thrombin substrate GLVPRGSAG (SEQ ID NO:1)
T7 sequence: CAGLVPRGSAG

[14] = system: T8, peptide construct comprising the enterokinase substrate AGDDDDKAG (SEQ ID NO:2)
T8 sequence: CAAGDDDDKAG

[15] = system: peptides containing thrombin cleavage sites (whole yeast peptide construct set from S. cerevisiae genomic DNA)

**Q.** Which “phosphorylation, capture on anti-phosphotyrosine beads and sequencing counts” value (shortened to “phosphorylation, capture”) [1] does the source give for ABL1 tyrosine kinase here?
**A.** None of the 1557 negative peptides were detected in the assays

**Q.** What about the “relative qPCR signal {2^[Ct(untreated)-Ct(test)]} after biotin labelling of phosphotyrosine and capture on streptavidin beads” value [2] of the same substance?
**A.** The qPCR signal was ~2-fold higher for the kinase-treated preparation, relative to the untreated preparation

**Q.** And the “relative qPCR signal {2^[Ct(untreated)-Ct(test)]} after capture on anti-phosphotyrosine antibody beads” value [2]?
**A.** The qPCR signal was significantly higher (~120-fold) for the kinase-treated preparation, relative to the untreated preparation

**Q.** How did the “protease cleavage, release from beads and sequencing counts” value (from here on “protease cleavage, release”) (SEQ ID NO 28) turn out when “NS3 (hepacivirin) protease of hepatitis C virus” was run?
**A.** map of peptide cleavage sites identified by assaying overlapping 8-mer peptides of HCV polyprotein (SEQ ID NOS:22, 23, 24, 25, 8, 26, 9, 27, 10, 28, 12, and 29

**Q.** What about the “protease cleavage, release” value (SEQ ID NO 22) of the same substance?
**A.** map of peptide cleavage sites identified by assaying overlapping 8-mer peptides of HCV polyprotein (SEQ ID NOS:22, 23, 24, 25, 8, 26, 9, 27, 10, 28, 12, and 29

**Q.** And the “protease cleavage, release” value (SEQ ID NO 29)?
**A.** map of peptide cleavage sites identified by assaying overlapping 8-mer peptides of HCV polyprotein (SEQ ID NOS:22, 23, 24, 25, 8, 26, 9, 27, 10, 28, 12, and 29

**Q.** What about the “protease cleavage, release” value (SEQ ID NO 25) of the same substance?
**A.** map of peptide cleavage sites identified by assaying overlapping 8-mer peptides of HCV polyprotein (SEQ ID NOS:22, 23, 24, 25, 8, 26, 9, 27, 10, 28, 12, and 29

**Q.** And the “protease cleavage, release” value [3]?
**A.** cleavage of 3 of the 4 known sites published in the MEROPS database was detected

**Q.** And the “protease cleavage, release” value [4]?
**A.** the undetected site, EVVTSTWV (SEQ ID NO:11), is known to be cleaved only in cis

**Q.** What about the “protease cleavage, release” value (SEQ ID NO 23) of the same substance?
**A.** map of peptide cleavage sites identified by assaying overlapping 8-mer peptides of HCV polyprotein (SEQ ID NOS:22, 23, 24, 25, 8, 26, 9, 27, 10, 28, 12, and 29

**Q.** What about the “protease cleavage, release” value [5] of the same substance?
**A.** Peptide EAIYQCCD (SEQ ID NO:12) represents a peptide substrate that does not fit the known HCV NS3 protease consensus

**Q.** And the “protease cleavage, release” value [6]?
**A.** cleavage of 3 of the 4 known sites published in the MEROPS database was detected

**Q.** What about the “protease cleavage, release” value (SEQ ID NO 24) of the same substance?
**A.** map of peptide cleavage sites identified by assaying overlapping 8-mer peptides of HCV polyprotein (SEQ ID NOS:22, 23, 24, 25, 8, 26, 9, 27, 10, 28, 12, and 29

**Q.** What about the “protease cleavage, release” value [7] of the same substance?
**A.** cleavage of 3 of the 4 known sites published in the MEROPS database was detected

**Q.** What about the “protease cleavage, release” value (SEQ ID NO 26) of the same substance?
**A.** map of peptide cleavage sites identified by assaying overlapping 8-mer peptides of HCV polyprotein (SEQ ID NOS:22, 23, 24, 25, 8, 26, 9, 27, 10, 28, 12, and 29

**Q.** What about the “protease cleavage, release” value (SEQ ID NO 27) of the same substance?
**A.** map of peptide cleavage sites identified by assaying overlapping 8-mer peptides of HCV polyprotein (SEQ ID NOS:22, 23, 24, 25, 8, 26, 9, 27, 10, 28, 12, and 29

**Q.** Which “phosphorylation, capture” value [8] does the source give for SRC tyrosine kinase here?
**A.** Two more sites were identified (GTEPEPVYSM (SEQ ID NO: 18) and VYSMEAADYR (SEQ ID NO: 19))

**Q.** And the “phosphorylation, capture” value [9]?
**A.** the third known site that was not detected (QVSSAYQKTV (SEQ ID NO: 20))

**Q.** What about the “phosphorylation, capture” value [10] of the same substance?
**A.** Two more sites were identified (GTEPEPVYSM (SEQ ID NO: 18) and VYSMEAADYR (SEQ ID NO: 19))

**Q.** What about the “phosphorylation, capture” value [1] of the same substance?
**A.** None of the 1557 negative peptides were detected in the assays

**Q.** What about the “phosphorylation, capture” value [11] of the same substance?
**A.** Two of the three Src phosphorylation sites (GLAYATEAVY (SEQ ID NO: 16) and GHYPAEDSTY (SEQ ID NO: 17)) were detected

**Q.** And the “phosphorylation, capture” value [12]?
**A.** Two of the three Src phosphorylation sites (GLAYATEAVY (SEQ ID NO: 16) and GHYPAEDSTY (SEQ ID NO: 17)) were detected

**Q.** enterokinase was tested. Which “protease cleavage, PAGE of reaction products” value (“protease cleavage, PAGE” for short) [13] did it give?
**A.** neither the control nor the peptide construct comprising the thrombin substrate were cleaved

**Q.** What about the “protease cleavage, PAGE” value [14] of the same substance?
**A.** When treated with enterokinase, the peptide construct comprising the enterokinase substrate was cleaved

**Q.** thrombin was tested. Which “protease cleavage, PAGE” value [13] did it give?
**A.** then treated with thrombin, the peptide construct comprising the thrombin substrate was cleaved

**Q.** And the “protease cleavage, sequence analysis of released constructs” value [15]?
**A.** Sequence analysis demonstrated a significant enrichment of peptides containing thrombin cleavage sites

**Q.** And the “protease cleavage, PAGE” value [14]?
**A.** neither the control nor the peptide construct comprising the enterokinase substrate was cleaved
